The values below come from patent US20240376156A1, “MULTIPLE DE NOVO DESIGNED PROTEIN BINDING PROTEINS” (UNIVERSITY OF WASHINGTON, priority 2021, published 2024).

By Kd is commonly meant the concentration at which binding is half-saturated.

Data set [1] deals with VirB8. Type of data set: binding, Rickettsia typhi. The settings on record: read-out: Octet kD. On the technique in general: Biolayer interferometry detects binding as a change in optical thickness at a sensor tip.
Data set [2] in a line: Circular dichroism wavelength scans and temperature melts (Tm). The class given is physicochemical. On the technique in general: CD spectra are sensitive to the conformation of chiral molecules.
In data set [3] the target is VirB8-like protein from Rickettsia typhi (Rickettsia typhi). Put plainly: BLI (Octet); biotinylated target on streptavidin sensors, miniprotein as analyte.

B1: VirB8_mb (designed binder)
chain: MSHHHHHHHHSENLYFQSGGGNAEEITEKATLVGIEAWLLAKDEEQKKKVRTLNRQVKKLLQQNDLDQAKRVLDQLKSVLEDLKS
Take B1: the Kd in data set [1] and in data set [3] was 0.5 nM throughout. The molecule also had a TM in data set [2] of 66.2 °C.
